# According to the supplement of paper PMC12636428:
# Tested on: Saccharomyces cerevisiae
# Test: transcriptional activation domain activity (GFP:mCherry ratio, weighted mean of sorted bins, harmonized to initial dataset scale) (arbitrary fluorescence ratio units); higher = stronger transcriptional activation
# Details: beta-estradiol 1 µM; induction time 4 h
# Outline: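 The listed activation activity is a read-weighted mean of bin median fluorescence, averaged across barcodes and linearly mapped onto the initial dataset scale. Barcoded tiles, fused to an estradiol-inducible synthetic transcription factor, were integrated at URA3 in yeast diploids bearing a GFP reporter. Cells were held 4 hours at 30 °C in SC with 1 uM beta-estradiol, sorted into 8 GFP:mCherry bins, and sequenced, and tiles with fewer than 50 reads were excluded.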
row,Sequence,transcriptional activation domain activity
1,MLCMTMTTCMQWLAQFMIVYSLPYMVVSIKSFTFIFFAVCTTFSFIFTLLFVP,41900
2,MYHALHKSGLSDTYIIQDVGVPFDAVEAFYKWLHETLHIYPLWLCPIRVRRYT,44700
3,RRVTGKVLLLVWKLGVRPRLNVFEGVVHRLAVAGCFSQIPPAVALCRRILNRI,59000
4,AADQVQDTAGQAVNQVGDTAGKALGGLTGGGKKEQGGEEEGGGEQLRLRLELN,35700
5,EPVEAEAQAEAEAETKEPETKSEETAAASTETEKVEDKREATTATEKAQAAAS,< 6570
6,MGYQPLFLCFVLSSPCLLLFPVLHILQPASSFSLLCLELFVRWVTYLLLLFSS,71800
7,ITPYPVLLSGEDTSSKISRMRKVLRDRARTDNWIYLIPTLSTLAWLFNYRCRT,66100
8,GEAQARANADAQADAGEVPEKGKKKRRHKEGGGDGEGKKKKRKEKQTEPEEGA,24700
9,QVPEQVPEQAPEPEKVAEEIVKEEVKKPEEPKAPTPSPAPVAAPRAAAPPAAE,29500
10,SFSVLNLNLGKIENDGNESNEDYLGNEKFYLNEILPDEESKLRWKRVFENSEN,52600
11,SPSPSTTATPPASPSPPSRTKSTPRASSRSACAPSVTTPAGRPRSCARSGPRC,38000
12,MSLVLLLFCLYLRCYSVLAMANGVSVLNAADYPFSVMITKPVMCGGALISLDP,69000
13,CTYVRESIKQFNGTYSKALEVRQRSIQFLGQRTKLCWYWLMLRYHLSTLMLVD,39700
14,EDGDVDMGEADDKPAEPEAEIKTEEVETAAAPEPETEPKSTPAVPAAAAAAAA,24500
15,VHLGVLFTLSIPYVRLWLIPRLFVCIFVRAFLFLLLFSGIVYPEFFFFFFFLR,40800
16,KIHLVNIAQVVVFFIYRFLYGLIPLFEISTCAYYPLLVSLWHLDYLLFYTVMF,64000
17,LSLAGSNYFGICWNPAVKNCIPYDTYLLWIRCMPFWYLFVFLYDILPPILIVY,52200
18,NAVNKSRGMVKGSGRKLHQQKGTGRARMRDAQNPIRRGGGRAFAKTTARNWLV,29500
19,MSVFILFVGCFYCMVCLFSPSYMWFFCGVISILFLIFPFLHDFQLYFFFGGGH,41700
20,MEHFSLFLFRFFFLFFVFLFLRRRGGGFGTGFGFWFLVFGFWFLVFGFWFWLW,64000
21,TAGAATNNKRNRLKVNGKVFTRLDVIGRGGSSRVYRVMAENSKIFALKRVSLD,35800

row,Sequence,transcriptional activation domain activity
1,DAEYMCQYHGSLIGKHFKSLAQVMPFVIYGLVHEDVLHAWNIIGTLLVLLWHT,33500
2,LYLLIFFPVLLWRYLCIGLDSVLCCHIGFHFPYFMCYFFAIMSVSRSFFIHVY,67200
3,FIDAAGKGGELRWNPHNKRYHLVGAEEGGKEDALSAPNKPTKPNPVLVCIYGQ,69000
4,YRALHQRIWDEGLYECNYRAYAIECTRYVLLFTLMWVCLYFQRYFLGAFFLGA,83700
5,TENIERVLERGERIDLLVDKTGRLNVGANEFRRRSRGLRRRMWWKNVKLMALL,65200
6,MEVVEGGGWKSFVYSCIRVIFLWGLDFGYFGLVACLISFCIGIFFSFFFPHYF,27200
7,SQVNKGKVQVWVMYFSFSFFFLFFIHLVCWFLLFCFFFFFVPFIIPLFFFFFL,32300
8,ELGLLADIMQHEIQGFWGLIKILAKRRKNKYHANMADVNMRSVFQKAFTSWMM,44500
9,IAPCGSWTPYTCLILGSIISLFIDFDVFAPFSYRGFITSYFGLAWFWFMFLFW,56200
10,TRTVLFSRGACVILFPWLMYAVGLLLHMIIVNYRLYILYWLLVLKRPIGGFKF,57500
11,RSAPGGRAGGRDGGSSSSSSDSSDEERETDGPVRKRRRTATSGARKAAPKSRP,29200
12,LYLSVLYIIVFTFLPGYTFIFTLTYGYGFAARGLSFLALGVGFLSSLILVIPV,46500
13,MAFLYLELPLVGMTFGGGRRGWGFMYLFLFLSFSFFFIQLWFGLVWVMTLCEV,63600
14,VIVIVMLFFLFYFNRLLGFVISKIVSYWTWKLYSAHIEIESIKFALLGGRISF,55200
15,IYGSTAKPFPYTEGYHFLLKFVTEKFEKAEVLRIVRALGLFRPSLIALQMPLT,42800
16,LSLWFLILGALSTTSSFFNIFILQWGVIRCCSVIGPGPCTESILGITQLAVQF,51100
17,ALLSSLHFGLGSHFRDIILKHPQWLIPLMRWLYIQNATYFNCSGIVKMSLLFQ,46400
18,MFQAKLLQHMCDLHTNSGDGELKTLLTEILRMLLVTYIMAHVLTIERDTVHSV,47600
19,MRQCCRCGDALKRCVILAVIAFGSVPPVYVGLVACARCRVWLFSPGLLYLKWF,55500
20,LIVVFAQSKIDSDEASVPVDEELNGVSLLVRILSDSAGRIYMIVTLELLLKRN,53600
21,ASEKKEASQRPPPAVEKKTVPKPSSKPENRPGPSKPVVPKADSKKEAPKPAPS,9920

row,Sequence,transcriptional activation domain activity
1,AAATATGAAPPGAPGEGPPKVKRGRKPKPKNLPPSDPNASTTATPGTSAPGSQ,32500
2,VPLPELEPKVVLELRAVVVQVKQLDEEPPLDLEQRVELVPTGQLEQRAAPVLR,35000
3,MTEPMLFFVLYFIRLLPFSFIFFHFLSFSLSILFFVILFSSSFHPFSSSFFFI,53400
4,SICCALQDWYDYFSTLSYQDTLKSNIWYSLAETEYYWLHLLLFLPHLKRYLTR,47600
5,TVDSLLTFVPFFLLTLLFLLISLFLFILFFLIFFFLFIPFSSFLFIYFSLSFH,32200
6,RNVEDCAATNGSLVPISMPGGKREENDRRVPRANVSKVIILGSGGLSIGQAGE,44500
7,YVGRSVLIHQSHGSFEILILWNHYPLLCFFFCHGRRRVFSARLSLLLFCLCRF,54700
8,QTRQDEDHWQRVRELENQSSLYYLPIHEETPFFIDLIPNGFYLETKRSADNLF,92000
9,NRPGQKSIQVLNQYIGIDIGKCYLCGRLCVNLSYVCWSSPQLLYNCRMVMITR,41000
10,GVPIWRLTGETWNWKEIVDRHPLTGKVVRRRSLKWGMACYRFWWVVWGCLFYI,59300
11,PNSTGDDPSRLRRAHRKSPGGCQSCKRRRVKCDEKVSCSNCRRRREHCHAGQQ,56900
12,AAPSKPASPTKAAAPVSKPVTPAPQKAAPVQQQSKPATPAPQQKAATPAPKTA,29500
13,MNQTSRFFLLFFFFFFFYFFPFSHLLPSFLLLFLSFYFSPSYLLLCLFSLIFY,42600
14,DRNYKRVARQIGFTIDRKHGDDLRHFPIERARLELIWPLLGFGLSCYLCYGWV,49600
15,YDKKTNVLGFDDGTFDNKVFNRTNFEEKAPFDIPLDEFFTELEKHSNVSQFNT,112000
16,EGEDALTLPLIISSQALLVVPPEKIVALPLQQMLSLVVRAITQAFVHGAFISR,67100
17,MNAQQLSGTRHKKEIKRRTKTGCLTCRKRRIKCDEGHPTCRNCQKSKRECLGY,38600
18,EPESKPAPARGAQPAQRGNFRGGRGGHRGARGGRGRGGYQERPRRQEEEKPTK,9620
19,GEDEEEGEEEEEEDDDDEEEKDHDEDEGDQGDGASDDADAAAQERPGKPRPGR,8020
